Results from the supplement of paper PMC9112550, “Optimization of the antimicrobial peptide Bac7 by deep mutational scanning” (BMC Biology, 2022).

Test system: Escherichia coli TOP10
Assay: shrunken log2 fold change of peptide-encoding DNA abundance (4.5 h post-induction vs induction); higher = less antimicrobial activity (less host growth inhibition)
Conditions: time post-induction: 4.5 h; library: site-saturation at positions 5, 18, 19, 20
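Also: peptides expressed intracellularly from a pBAD plasmid library in pooled LB shake-flask culture, induced with 0.3% L-arabinose, DNA abundance read by NGS, three biological replicates, DESeq2 with apeglm shrinkage.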

Sequence	shrunken log2 fold change
RRIRWRPPRLPRPRPRPRFMPRP	-0.17
RRIRTRPPRLPRPRPRPLQGPRP	0.12
RRIRFRPPRLPRPRPRPCKFPRP	-0.0298
RRIRWRPPRLPRPRPRPKDEPRP	0.0784
RRIRMRPPRLPRPRPRPECWPRP	2.25
RRIRARPPRLPRPRPRPGYHPRP	-0.14
RRIRWRPPRLPRPRPRPVAQPRP	0.386
RRIRIRPPRLPRPRPRPLCNPRP	-0.807
RRIRYRPPRLPRPRPRPDLWPRP	-0.0329
RRIRKRPPRLPRPRPRPGEEPRP	0.108
RRIRCRPPRLPRPRPRPHWGPRP	0.143
RRIRVRPPRLPRPRPRPMGTPRP	0.113
RRIRERPPRLPRPRPRPWEWPRP	0.0992
RRIRARPPRLPRPRPRPDMGPRP	-0.0014
RRIRFRPPRLPRPRPRPGEIPRP	-0.183
RRIRDRPPRLPRPRPRPICWPRP	0.318
RRIRERPPRLPRPRPRPFVSPRP	0.176
RRIRGRPPRLPRPRPRPKANPRP	0.836
RRIRWRPPRLPRPRPRPGWLPRP	0.375
RRIRKRPPRLPRPRPRPMIIPRP	-0.0318
RRIRFRPPRLPRPRPRPHEYPRP	-0.264
RRIRFRPPRLPRPRPRPLVSPRP	-0.425
RRIRDRPPRLPRPRPRPPGRPRP	0.104
RRIRIRPPRLPRPRPRPFVAPRP	-0.158
RRIRRRPPRLPRPRPRPLVNPRP	0.0359

Sequence	shrunken log2 fold change
RRIRYRPPRLPRPRPRPFSHPRP	-0.0363
RRIRLRPPRLPRPRPRPSQTPRP	-0.217
RRIRDRPPRLPRPRPRPQRRPRP	0.255
RRIRMRPPRLPRPRPRPYWMPRP	-1.18
RRIRNRPPRLPRPRPRPEHAPRP	0.0107
RRIRLRPPRLPRPRPRPRYLPRP	-0.0102
RRIRWRPPRLPRPRPRPKMAPRP	0.859
RRIRRRPPRLPRPRPRPHTQPRP	0.573
RRIRNRPPRLPRPRPRPSAPPRP	0.0188
RRIRWRPPRLPRPRPRPILTPRP	0.00604
RRIRDRPPRLPRPRPRPAAHPRP	0.66
RRIRRRPPRLPRPRPRPRHGPRP	0.197
RRIRNRPPRLPRPRPRPHPEPRP	0.00649
RRIRCRPPRLPRPRPRPWAYPRP	-0.508
RRIRSRPPRLPRPRPRPNVWPRP	0.109
RRIRARPPRLPRPRPRPLQGPRP	0.0704
RRIRDRPPRLPRPRPRPTIKPRP	-0.295
RRIRTRPPRLPRPRPRPMDHPRP	-0.31
RRIRCRPPRLPRPRPRPLFFPRP	-0.273
RRIRSRPPRLPRPRPRPNYDPRP	-0.247
RRIRWRPPRLPRPRPRPRTLPRP	0.565
RRIRKRPPRLPRPRPRPGDDPRP	0.758
RRIRNRPPRLPRPRPRPLPQPRP	0.229
RRIRKRPPRLPRPRPRPLHMPRP	0.102
RRIRRRPPRLPRPRPRPTAPPRP	0.583

Sequence	shrunken log2 fold change
RRIRPRPPRLPRPRPRPLRGPRP	0.792
RRIRPRPPRLPRPRPRPRMCPRP	0.152
RRIRFRPPRLPRPRPRPGKIPRP	-0.024
RRIRSRPPRLPRPRPRPTAYPRP	-0.00955
RRIRERPPRLPRPRPRPFSQPRP	-0.347
RRIRTRPPRLPRPRPRPFVGPRP	-0.035
RRIRTRPPRLPRPRPRPRANPRP	0.177
RRIRLRPPRLPRPRPRPTAGPRP	0.53
RRIRMRPPRLPRPRPRPYDFPRP	-0.00149
RRIRWRPPRLPRPRPRPQQWPRP	0.333
RRIRSRPPRLPRPRPRPRQGPRP	0.185
RRIRNRPPRLPRPRPRPAECPRP	0.0508
RRIRYRPPRLPRPRPRPMDEPRP	-0.115
RRIRRRPPRLPRPRPRPMDHPRP	-0.0417
RRIRDRPPRLPRPRPRPNMQPRP	-0.339
RRIRKRPPRLPRPRPRPVNKPRP	0.22
RRIRDRPPRLPRPRPRPVTWPRP	0.0882
RRIRHRPPRLPRPRPRPINCPRP	0.00172
RRIRTRPPRLPRPRPRPHTNPRP	0.0124
RRIRERPPRLPRPRPRPPMYPRP	-0.458
RRIRERPPRLPRPRPRPYSRPRP	-0.195
RRIRVRPPRLPRPRPRPQSNPRP	-0.394
RRIRVRPPRLPRPRPRPFLGPRP	-0.0486
RRIRVRPPRLPRPRPRPKRCPRP	-0.0118
RRIRVRPPRLPRPRPRPYCFPRP	-0.736

Sequence	shrunken log2 fold change
RRIRVRPPRLPRPRPRPYDHPRP	-0.347
RRIRHRPPRLPRPRPRPRVGPRP	0.371
RRIRNRPPRLPRPRPRPNQIPRP	-0.319
RRIRFRPPRLPRPRPRPRQEPRP	0.0178
RRIRTRPPRLPRPRPRPLKRPRP	-0.236
RRIRFRPPRLPRPRPRPQVGPRP	-0.0394
RRIRSRPPRLPRPRPRPIITPRP	-0.507
RRIRIRPPRLPRPRPRPVHTPRP	-0.4
RRIRQRPPRLPRPRPRPVDAPRP	-0.0176
RRIRSRPPRLPRPRPRPHFVPRP	-0.0872
RRIRFRPPRLPRPRPRPFLTPRP	-0.172
RRIRFRPPRLPRPRPRPLIAPRP	-0.234
RRIRWRPPRLPRPRPRPQFWPRP	0.105
RRIRRRPPRLPRPRPRPSPQPRP	1.96
RRIRNRPPRLPRPRPRPAGLPRP	-0.118
RRIRRRPPRLPRPRPRPTFEPRP	0.358
RRIRVRPPRLPRPRPRPTTSPRP	0.097
RRIRWRPPRLPRPRPRPGELPRP	0.532
RRIRRRPPRLPRPRPRPTFMPRP	0.284
RRIRMRPPRLPRPRPRPMYQPRP	-0.0563
RRIRDRPPRLPRPRPRPWCKPRP	-0.171
RRIRCRPPRLPRPRPRPGAEPRP	0.239
RRIRCRPPRLPRPRPRPTWKPRP	-0.114
RRIRKRPPRLPRPRPRPREIPRP	0.736
RRIRARPPRLPRPRPRPETTPRP	1.61

Sequence	shrunken log2 fold change
RRIRGRPPRLPRPRPRPDWEPRP	0.166
RRIRGRPPRLPRPRPRPKKTPRP	0.181
RRIRLRPPRLPRPRPRPWWNPRP	-0.426
RRIRMRPPRLPRPRPRPHHRPRP	-0.0556
RRIRIRPPRLPRPRPRPVNCPRP	-0.34
RRIRSRPPRLPRPRPRPPCIPRP	-0.105
RRIRQRPPRLPRPRPRPWPKPRP	0.097
RRIRCRPPRLPRPRPRPEWTPRP	0.154
RRIRPRPPRLPRPRPRPRYAPRP	0.0891
RRIRGRPPRLPRPRPRPANNPRP	0.138
RRIRDRPPRLPRPRPRPPLDPRP	0.652
RRIRNRPPRLPRPRPRPIDTPRP	-0.0154
RRIRHRPPRLPRPRPRPMGDPRP	-0.0774
RRIRDRPPRLPRPRPRPLPAPRP	0.574
RRIRARPPRLPRPRPRPMEVPRP	-0.0122
RRIRRRPPRLPRPRPRPPQNPRP	1.4
RRIRFRPPRLPRPRPRPEDYPRP	0.0145
RRIRPRPPRLPRPRPRPRNMPRP	-0.126
RRIRSRPPRLPRPRPRPPHMPRP	-0.0602
RRIRVRPPRLPRPRPRPGWYPRP	0.0128
RRIRCRPPRLPRPRPRPCPWPRP	-0.0714
RRIRKRPPRLPRPRPRPGRSPRP	0.256
RRIRDRPPRLPRPRPRPDAYPRP	0.0301
RRIRMRPPRLPRPRPRPLSCPRP	0.163
RRIRMRPPRLPRPRPRPFGFPRP	-0.0868
